# Experimental data as given in paper PMC7591920, “A protein tertiary structure mimetic modulator of the Hippo signalling pathway” (Nature Communications, 2020).
# pKd: −log10 of the molar value.
# Experiments:
# [1] = target: GST-hTEAD1(209–426) (human) (UniProt P28347); test: not stated; values of Supplementary Table 1; the method is not given
# [2] = target: mouse TEAD4(210–427), as purified (SPR) (mouse) (UniProt Q62296); test: as above
# Chain of mouse TEAD4(210–427), as purified (SPR) (mouse) (Q62296 210-427): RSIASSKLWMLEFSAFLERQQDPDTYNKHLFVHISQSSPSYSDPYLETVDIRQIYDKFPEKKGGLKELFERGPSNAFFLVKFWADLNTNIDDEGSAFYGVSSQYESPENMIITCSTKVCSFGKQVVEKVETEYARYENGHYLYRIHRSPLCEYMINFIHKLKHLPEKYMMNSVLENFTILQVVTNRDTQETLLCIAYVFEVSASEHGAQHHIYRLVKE
substance,measurement,setting,value
VGL4 two-helix motif peptide with K250 varied to alanine (from UniProt Q80V24 203-256),pKd,[1],4.77
same,pKd,[2],4.92
